Reference: patent EP1073891B1, “METHOD OF PREDICTING RECEPTOR MODULATING ACTIVITY” (Duke University, priority 1998, dated 1999)
Values belong to the sequence of their own block, whether it stands above or below them.

Legend:
full length ER-α = target: T1, full length ER-α (Homo sapiens, UniProt P03372); assay: Affinity selection and phage ELISA of X7-LXXLL-X7 library on estradiol treated ER (Example 101.1); assay type: binding
T1 construct: Baculovirus expressed full length ER-α; host or cells: baculovirus expression
T1 sequence (P03372 1-595): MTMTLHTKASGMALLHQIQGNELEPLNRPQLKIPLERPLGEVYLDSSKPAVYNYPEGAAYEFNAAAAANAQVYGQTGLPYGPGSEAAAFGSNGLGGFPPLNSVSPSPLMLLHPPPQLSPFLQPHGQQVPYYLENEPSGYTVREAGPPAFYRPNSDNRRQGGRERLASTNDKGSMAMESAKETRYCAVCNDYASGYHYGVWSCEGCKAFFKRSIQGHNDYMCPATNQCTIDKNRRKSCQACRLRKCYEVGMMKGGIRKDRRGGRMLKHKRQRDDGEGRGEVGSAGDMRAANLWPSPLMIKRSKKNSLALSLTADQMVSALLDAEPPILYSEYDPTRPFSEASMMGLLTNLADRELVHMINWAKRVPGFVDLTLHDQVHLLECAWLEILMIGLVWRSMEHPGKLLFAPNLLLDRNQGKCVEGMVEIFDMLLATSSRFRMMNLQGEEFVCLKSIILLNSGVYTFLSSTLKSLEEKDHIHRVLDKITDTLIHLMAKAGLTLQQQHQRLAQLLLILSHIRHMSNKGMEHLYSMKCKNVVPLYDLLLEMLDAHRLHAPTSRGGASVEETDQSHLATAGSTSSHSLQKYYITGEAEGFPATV
Experimental: M13 phage-based random peptide libraries were incubated with target proteins in the wells, ER binding phage were retained while the unbound phage were washed away. Bound phage were eluted by low pH buffer, amplified in DH5αF' cells and subjected to subsequent round of selection. The selection processes were repeated 2-3 times to enrich for EB bonding phage. Individual phage were plaque purified, amplified and their binding characteristics were examined by ELISA.

[1] = target: T2, estrogen receptor α (ERα) (Homo sapiens, UniProt P03372); assay: LexA yeast two hybrid, β-galactosidase activity assay (Example 3); assay type: cell-based
T2 construct: The full length estrogen receptor was subcloned in frame into the EcoRI and XhoI sites of pJG4-5; expressed in transfected cells; host or cells: Saccharomyces cerevisiae EGY48
T2 sequence (P03372 1-595): T1 sequence (P03372 1-595)
Text: The LexA system that we employ utilizes a bacterial DNA binding protein domain, LexA, and a bacterially derived transcriptional activation sequence, B42. Proteins or peptides of interest are fused in frame with these domains and expressed using episomal plasmids in a yeast cell. The interactions between these proteins/peptides of interest are registered by monitoring the level of the reporter gene product, β-galactosidase, by an enzymatic assay. The differences in the levels of β-galactosidase activities reflect the relative strengths of the protein interactions.
The yeast strains used in this study was EGY48 (MAT a trp1 his3 ura3 leu2::61exAops-LEU2) purchased from OriGeneTechnologies for yeast two hybrid analysis. This strain contains 6 LexA operators upstream of the LEU2 gene in the yeast genome and provides high sensitivity in detecting protein-protein interactions in the LexA two hybrid system. The plasmids used in this study were pEG202 (LexA-DNA binding domain), pJG4-5 (B42-activation domain), and the plasmid containing a β-galactosidase reporter, pJK103 (OriGene Technologies). The full length estrogen receptor was subcloned in frame into the EcoRI and XhoI sites of pJG4-5 to generate an ERα-B42 activation domain fusion. ERα was subcloned in the activation domain plasmid because ERα was able to autoactivate reporters when fused to the LexA DNA binding domain.
The peptide sequences used in this study were generated from synthetic oligos filled in by T7 Sequenase (Life Science) and subcloned into the EcoRI-XhoI sites of pEG202. The synthetic oligos were: [formula] [formula] [formula] [formula] The complementary synthetic oligo used to generate double stranded DNA was 3'XhoPrim, 5'-[…]. Each 5'-oligo was annealed to the 3'-oligo by heating to 90 °C for 15 minutes and cooled slowly to 35 °C. T7 sequenase was added and the fill-in reaction allowed to proceed at 30 °C for 30 minutes. The reaction was terminated by heat denaturing the enzyme at 65 °C for 1 hour, restriction digests were performed and the resulting DNA fragments subcloned into pEG202 to generate peptide-LexA DNA binding domain fusions.
The culture was diluted to ~2x10^6 cells/ml in the same media and allowed to grow at 30 °C until the cultures reached a density of ~1x10^7 cells/ml (∼4 hours). The yeast cells were pelleted by centurifugation, washed with extraction buffer (60 mM Na2HPO4, 40 mMNaH2PO4, 10 mM KCl, 1 mM MgSO4, 1mM PMSF, 7 mM 2-mercaptoethanol) and suspended in 200 µl of extraction buffer. 100 µl of acid-washed glass beads were added and cells were lysed by vigorous agitation for 10 minutes at 4 °C. Cellular debris was pelleted by centrifugation and the supernatant transferred to a clean tube. 10 µg of total cellular protein was diluted into complete Z buffer (60 mM Na2HPO4, 40 mMNaH2PO4 , 10 mM KCl, 1 mM MgSO4, 7 mM 2-mercaptoethanol) to a volume of 100 µl in a 96-well microplate. 80 µg of o-nitrophenyl-β-D-pyranoside (ONPG) in 20 µl was added to each well to initiate color development.
10µg of each protein extract was assayed for β-galactosidase activity using o-nitrophenyl-b-D-pyranoside as substrate. Activity units are defied as 1000* Abs405/minutes/mg/protein.
Values are in beta-galactosidase units (MOD/min/mg)

ERα [2] = target: T3, ERα (Homo sapiens, UniProt P03372); assay: Phage ELISA on plastic-immobilized ER, with or without estradiol, agonists or SERMs (Examples 1.3a, 1.4); assay type: binding; design: purchased PanVera Corporation, Madison, WI
T3 sequence (P03372 1-595): T1 sequence (P03372 1-595)
Text: ER alpha (Panvera Corp.) was immobilized on Immulon 4 plastic plates (Dynatech) for the phage affinity selection as described in patent application Fowlkes, 09/050,359. Peptide sequences obtained for binding to the unliganded (unactivated) receptor are listed below (Table 1).
Phage expressing distinct peptide sequences were classified according to a number of different parameters.
The effect of agonists and SERMs on the binding of phage from each of the 5 classes described above was investigated.
The following fingerprints were identified (Table 6). The data are based on the relative change in binding (as determined by an increase or decrease in absorbance) compared to the unliganded receptor. The number of + or - signs indicates the degree and the direction of the change in signal; +/- indicates no significant change.

ERα [3] = target: T3, ERα; assay: Phage ELISA / fingerprint on ER immobilized on biotinylated ERE (Examples 2.3-2.5); assay type: binding; design: purchased PanVera Corporation, Madison, WI; key to binding activity, ERα and buffer / binding activity, ERα and estradiol / binding activity, ERα and tamoxifen / binding of peptide, Class Specific Fingerprint on ERα: semiquantitative scale of 0 to 7+; 1+: semiquantitative scale of 0 to 7+; 2+: semiquantitative scale of 0 to 7+; 3+: semiquantitative scale of 0 to 7+; 4+: semiquantitative scale of 0 to 7+; 5+: semiquantitative scale of 0 to 7+; 6+: semiquantitative scale of 0 to 7+; semiquantitative scale of 0 to 7+; conditions: for binding activity, ERα and estradiol: ERα and estradiol (1 µM); for binding activity, ERα and tamoxifen: ERα and tamoxifen (4-OH tamoxifen, 1 µM)
ERβ = ERβ (Homo sapiens, UniProt Q92731); assay: as above; assay type: binding; design: purchased PanVera Corporation, Madison, WI; key: semiquantitative scale of 0 to 7+; 1+: semiquantitative scale of 0 to 7+; 2+: semiquantitative scale of 0 to 7+; 3+: semiquantitative scale of 0 to 7+; 4+: semiquantitative scale of 0 to 7+; 5+: semiquantitative scale of 0 to 7+; 6+: semiquantitative scale of 0 to 7+; semiquantitative scale of 0 to 7+; conditions: for binding activity, ERβ and Estradiol: ERβ and Estradiol (1 µM); for binding activity, ERβ and tamoxifen: ERβ and tamoxifen (4-OH tamoxifen, 1 µM)
[4] = 4-OH Tamoxifen present during binding
[5] = 16a-OH Estrone present during binding
[6] = Clomiphene present during binding
[7] = Estradiol present during binding
[8] = ICI 182,780 present during binding
[9] = Nafoxidine present during binding
[10] = Premarin present during binding
[11] = Progesterone present during binding
[12] = Raloxifene present during binding

ERβ, sequence (Q92731 whole entry): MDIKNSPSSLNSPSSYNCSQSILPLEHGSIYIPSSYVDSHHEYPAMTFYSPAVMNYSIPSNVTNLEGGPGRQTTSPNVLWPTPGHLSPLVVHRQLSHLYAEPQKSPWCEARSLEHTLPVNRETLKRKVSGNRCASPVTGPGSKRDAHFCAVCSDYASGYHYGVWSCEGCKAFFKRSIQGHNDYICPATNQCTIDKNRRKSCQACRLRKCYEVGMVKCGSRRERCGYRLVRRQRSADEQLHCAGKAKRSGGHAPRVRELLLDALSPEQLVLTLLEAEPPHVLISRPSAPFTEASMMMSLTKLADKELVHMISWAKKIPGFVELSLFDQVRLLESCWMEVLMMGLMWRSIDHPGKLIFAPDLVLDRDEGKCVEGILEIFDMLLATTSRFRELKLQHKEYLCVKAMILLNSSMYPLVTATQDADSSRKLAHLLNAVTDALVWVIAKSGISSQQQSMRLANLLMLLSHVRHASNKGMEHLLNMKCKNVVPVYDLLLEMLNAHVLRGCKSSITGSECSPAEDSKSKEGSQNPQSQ

- affinity for ERα (full length ER-α; affinity-selected peptide): high affinity
- Peptide Interactions with ER Alpha, beta-galactosidase units, value ([1]; 4-hydroxy Tamoxifen): 20267 MOD/min/mg
- Peptide Interactions with ER Alpha, beta-galactosidase units, value ([1]; Estradiol): 38883 MOD/min/mg
- Peptide Interactions with ER Alpha, beta-galactosidase units, value ([1]; No Addition): 30983 MOD/min/mg
- Peptide Interactions with ER Alpha, beta-galactosidase units, value ([1]; Tamoxifen Citrate): 11947 MOD/min/mg
Sequence: GHEPLTLLERLLMDDKQAV [Peptide F6]

Sequence: SSNHQSRLIELLSR [ER4]
- binding to ligand occupied ER (full length ER-α; agonist, partial agonist or antagonist occupied ER): binds to agonist occupied ER but not partial agonist- or antagonist-occupied ER

- binding of ER in presence of estradiol (ERα [2]): weak binders
Sequence: SSVTKKALTIAKDSR

- binding activity, ERα and buffer (ERα [3]): 5+
- binding activity, ERα and estradiol (ERα [3]): 3+
- binding activity, ERα and tamoxifen (ERα [3]): 4+
- binding activity, ERβ and Estradiol (ERβ): 6+
- binding activity, ERβ and buffer (ERβ): 4+
- binding activity, ERβ and tamoxifen (ERβ): 2+
Sequence: SSYEIPKWALQWLSR [Peptide 34E-β]

- binding of ER in presence of estradiol (ERα [2]): weak binders
Sequence: SSYQWETHSDKWRSR

- binding of peptide, Class Specific Fingerprint on ERα (ERα [3]; [4]): 7+
- binding of peptide, Class Specific Fingerprint on ERα (ERα [3]; [5]): 2+
- binding of peptide, Class Specific Fingerprint on ERα (ERα [3]; [6]): 6+
- binding of peptide, Class Specific Fingerprint on ERα (ERα [3]; DES present during binding): 1+
- binding of peptide, Class Specific Fingerprint on ERα (ERα [3]; [7]): 1+
- binding of peptide, Class Specific Fingerprint on ERα (ERα [3]; Estriol present during binding): 1+
- binding of peptide, Class Specific Fingerprint on ERα (ERα [3]; [8]): 1+
- binding of peptide, Class Specific Fingerprint on ERα (ERα [3]; [9]): 4+
- binding of peptide, Class Specific Fingerprint on ERα (ERα [3]; [10]): 2+
- binding of peptide, Class Specific Fingerprint on ERα (ERα [3]; [11]): 2+
- binding of peptide, Class Specific Fingerprint on ERα (ERα [3]; [12]): 4+
- binding of peptide, Class Specific Fingerprint on ERα (ERα [3]; buffer present during binding): 1+
- binding of peptide, Class Specific Fingerprint on ERβ (ERβ; [4]): 7+
- binding of peptide, Class Specific Fingerprint on ERβ (ERβ; [5]): 1+
- binding of peptide, Class Specific Fingerprint on ERβ (ERβ; [6]): 5+
- binding of peptide, Class Specific Fingerprint on ERβ (ERβ; DES present during binding): 1+
- binding of peptide, Class Specific Fingerprint on ERβ (ERβ; [7]): 1+
- binding of peptide, Class Specific Fingerprint on ERβ (ERβ; Estriol present during binding): 1+
- binding of peptide, Class Specific Fingerprint on ERβ (ERβ; [8]): 1+
- binding of peptide, Class Specific Fingerprint on ERβ (ERβ; [9]): 3+
- binding of peptide, Class Specific Fingerprint on ERβ (ERβ; [10]): 1+
- binding of peptide, Class Specific Fingerprint on ERβ (ERβ; [11]): 1+
- binding of peptide, Class Specific Fingerprint on ERβ (ERβ; [12]): 6+
- binding of peptide, Class Specific Fingerprint on ERβ (ERβ; buffer present during binding): 2+
Sequence: SWDMHQFFWEGVSR [Peptide 2PT]

- binding activity, ERα and buffer (ERα [3]): 4+
- binding activity, ERα and estradiol (ERα [3]): 3+
- binding activity, ERα and tamoxifen (ERα [3]): 3+
- binding activity, ERβ and Estradiol (ERβ): 3+
- binding activity, ERβ and buffer (ERβ): 7+
- binding activity, ERβ and tamoxifen (ERβ): 3+
Sequence: SYSKEWFEERLNSR [Peptide 4b-β]
